Holding throughout (type): in vivo, human
Assay [1] has as its system patients with type 2 diabetes mellitus (T2DM). The assay can be described thus: Hemoglobin A1c in clinical dose escalation study of ACZ885 i.v. in T2DM patients on metformin. The protocol:
The hemoglobin A1c assay is performed at Covance Central Laboratory Services (CLS) on the FDA-approved Bio-Rad Variant™ analyzer. This analyzer utilizes the principles of ion-exchange high performance liquid chromatography (HPLC) and microcomputer technology. Detection is performed at two wavelengths, 415 nm and 690 nm, to insure a stable baseline. A chromatogram of the changes in the absorbance is plotted versus the retention time. Each chromatogram printout is accompanied by a report identifying each peak detected, plus the relative percent and retention times of each peak. The method has an inter-assay precision of 1.7-2.1% CV, and an intra-assay precision of 0.9-1.1% (determined by assaying 15 replicate assays of a sample then evaluating the coefficient of variation). A multi center, randomized, double blind, placebo-controlled, dose escalation study of the safety, tolerability, pharmacokinetics and pharmacodynamics of ACZ885 administered intravenously to patients with type 2 diabetes mellitus. The aim of the study is to compare the pharmacokinetic and pharmacodynamic effects of five doses (i.v. administration) of ACZ885 with placebo in patients with type 2 diabetes mellitus (T2DM). […] OGTT was administered at Baseline, 4 and 12 wk post-dose. […]

The test system is the same in assay [2]. The assay can be described thus: High sensitive C-reactive protein (hsCRP) in clinical study of ACZ885 in T2DM patients on metformin. As to conditions: single i.v. dose 0.03, 0.1, 0.3, 1.5 mg/kg, Week 4, on stable metformin. The protocol: CRP is one of the “acute phase” proteins, the serum or protein levels of which rise during general, nonspecific response to infectious and non-infectious inflammatory processes such as rheumatoid arthritis, cardiovascular disease and peripheral vascular disease. CRP is synthesized in the liver and is present in trace amounts in serum or plasma. The C-Reactive Protein HS assay is performed at Covance Central Laboratory Services by immunonephelometry using the Siemens BNII Nephelometer. Polystyrene particles coated with monoclonal antibodies to CRP are agglutinated when mixed with samples containing CRP. The intensity of the scattered light in the nephelometer depends on the CRP content of the sample and therefore the CRP concentration can be determined versus dilutions of a standard of a known concentration The method has an inter-assay precision of 2.1-5.7% CV, and an intra-assay precision of 2.3-4.4% (determined by assaying 10 replicate assays of a sample then evaluating the coefficient of variation). CRP accuracy is evaluated by comparison with College of American Pathologists (CAP) Cardiac Risk Survey. A multi center, randomized, double blind, placebo-controlled, dose escalation study of the safety, tolerability, pharmacokinetics and pharmacodynamics of ACZ885 administered intravenously to patients with type 2 diabetes mellitus. […]

For assay [3] the test system is unchanged. The assay can be described thus: Plasma glucose (fasting and OGTT) in clinical study of ACZ885 in T2DM patients on metformin. On the procedure: The glucose assay is a hexokinase enzymatic method. Hexokinase catalyzes the phosphorylation of glucose with adenosine triphosphate. The glucose-6-phosphate is then oxidized to 6-phosphogluconate in the presence of NAD by the enzyme glucose-6-phosphate dehydrogenase. The amount of NADPH formed during the reaction is equivalent to the amount of D-glucose in the specimen and is measured photometrically by the increase in absorbance. The method has an inter-assay precision of 5.1-6.2% CV, and an intra-assay precision of 1.7-2.5% (determined by assaying 50 replicate assays of a sample then evaluating the coefficient of variation). The method is specific for glucose; no other carbohydrate is oxidized. A multi center, randomized, double blind, placebo-controlled, dose escalation study of the safety, tolerability, pharmacokinetics and pharmacodynamics of ACZ885 administered intravenously to patients with type 2 diabetes mellitus. The aim of the study is to compare the pharmacokinetic and pharmacodynamic effects of five doses (i.v. administration) of ACZ885 with placebo in patients with type 2 diabetes mellitus (T2DM). […] OGTT was administered at Baseline, 4 and 12 wk post-dose. The subsequent cohorts were included in the evaluation of pharmacodynamic, pharmacokinetis, pharmacogenomics and pharmacogenetics. • Cohort 2 (n=90; 1:1=ACZ885:Plb): received a single dose of ACZ885 (10 mg/kg) or placebo. • Cohort 3 (n=96) received a single dose of ACZ885 0.1, 0.3, 1.5 mg/kg or placebo (1:1:1:1). • Cohort 4 (n=30; 2:1=ACZ885:P1b) received a single dose of ACZ885 (0.03 mg/kg) or placebo. The study was designed to follow the patients for 24 weeks (168 days) after the single intravenous (i.v.) administration. An analysis of covariance (ANCOVA) with treatment as the classification variable and baseline as the covariate will be used for the comparison of treatments with respect to these parameters.

This is an account of results in patent US20130122008A1, “Anti-IL 1- ß Antibody Combination Therapy” (NOVARTIS AG, priority 2009, published 2013).

“Also recorded” adds a separate entry of the source.

B1: ACZ885: anti-IL1β antibody, also referred to as Canakinumab; variable domains shown in SEQ ID NO:1 (VH) and SEQ ID NO:2 (VL) (antibody, V domains shown)
VH: QVQLVESGGGVVQPGRSLRLSCAASGFTFSVYGMNWVRQAPGKGLEWVAIIWYDGDNQYYADSVKGRFTISRDNSKNTLYLQMNGLRAEDTAVYYCARDLRTGPFDYWGQGTLVTVSS
VL: EIVLTQSPDFQSVTPKEKVTITCRASQSIGSSLHWYQQKPDQSPKLLIKYASQSFSGVPSRFSGSGSGTDFTLTINSLEAEDAAAYYCHQSSSLPFTFGPGTKVDIK
modifications: homo sapiens
As for B1, in assay [1] (single i.v. dose 1.5 mg/kg, Week 4, T2DM subjects on stable metformin, versus placebo, 1.5 mg/kg), the “hemoglobin A1c (HbA1c)” value was “statistically significant decreased; also recorded: Significant reduction”. Further, the “reduction in HbA1c” value in assay [1] (single i.v. dose 10 mg/kg, Week 4 to Week 12, p=0.032) is −0.32%. Further, in assay [2], the “high-sensitivity C-reactive protein (hsCRP), dose response” value was “linear reduction (dose proportional); also recorded: linear decreasing trend”. The “OGTT glucose AUC0-4 h / post-prandial glucose” value in assay [3] (dose escalation, Week 4 post-dose, versus placebo) is “Positive trends consistent with dose escalation; also recorded: positive trend at Week 4 post-dose, albeit not statistically significant”. The “postprandial glucose (OGTT) compared to placebo” value in assay [3] (single dose 10 mg/kg, 4 weeks) was “significant reduction”. Moreover, the “peak plasma glucose (PPG) following OGTT” value in assay [3] (single i.v. dose 10 mg/kg, Week 4, versus placebo in change from baseline, 10 mg/kg) is on record as “statistically significant; also recorded: reduction”; in assay [3] (single i.v. dose 10 mg/kg, Week 12) it was “maintained”. In assay [3] (single i.v. dose 10 mg/kg, Week 4 post-dose, 10 mg/kg), the “fasting plasma glucose (FPG)” value is “decrease”. Also, in assay [3] (single i.v. dose 10 mg/kg, four weeks after treatment, on stable metformin), the “plasma AUC glucose following OGTT” value is listed as “statistically significant decreased”. Besides, the “fasting plasma glucose (FPG), course of effect” value in assay [3] (single i.v. dose 10 mg/kg, from Week 4 to Week 12) is listed as “attenuated”.
